Experimental data from patent publication US20130039922A1 (YEDA RESEARCH AND DEVELOPMENT, published 2013).

Key:
[1] = target: T1, Human pro-MMP-2 (human, UniProt P08253 30-660); assay: pull-down with SDS3 on protein A beads, SDS-PAGE, Coomassie staining
T1 construct: Zymogen with pro-domain; also called MMP-2 zymogen
T1 sequence (looked up): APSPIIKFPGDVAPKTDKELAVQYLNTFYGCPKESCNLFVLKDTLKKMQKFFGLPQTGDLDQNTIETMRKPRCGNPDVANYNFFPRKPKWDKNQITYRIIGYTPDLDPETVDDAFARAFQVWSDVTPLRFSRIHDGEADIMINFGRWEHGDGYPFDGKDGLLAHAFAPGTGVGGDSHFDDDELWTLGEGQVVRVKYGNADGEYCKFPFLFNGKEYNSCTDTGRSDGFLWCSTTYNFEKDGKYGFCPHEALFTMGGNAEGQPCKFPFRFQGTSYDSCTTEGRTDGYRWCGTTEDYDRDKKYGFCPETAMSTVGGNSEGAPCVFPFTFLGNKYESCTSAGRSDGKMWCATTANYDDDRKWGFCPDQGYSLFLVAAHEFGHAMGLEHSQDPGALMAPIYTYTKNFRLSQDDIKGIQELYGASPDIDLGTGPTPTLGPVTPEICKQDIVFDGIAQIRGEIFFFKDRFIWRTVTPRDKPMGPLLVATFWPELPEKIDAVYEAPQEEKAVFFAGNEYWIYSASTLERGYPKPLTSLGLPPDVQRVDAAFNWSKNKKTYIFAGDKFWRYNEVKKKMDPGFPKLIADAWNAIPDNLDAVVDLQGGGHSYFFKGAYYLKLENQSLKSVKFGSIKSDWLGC
Experimental: (§1) FIGS. 7A-B are photographs illustrating that SDS3 recognizes only the active conformation of MMP-2 and -9. FIG. 7A: Western blot analyses of MMP-9 using commercial anti-MMP-9 antibody. Lane 1—SDS3 captured from mice ascetic fluid by protein G beads; lane 2—As control non-related IgG similarly captured; lane 3—ProMMP-9, as a molecular weight marker to discern the active species. FIG. 7B: SDS3 mAb immobilized to protein A beads was analyzed for its ability to pull down purified ProMMP-9 (top), ProMMP-2 (middle) or active MMP-2 (bottom). Immunoprecipitates (lane 1) and unbound fraction (lane 2) were separated on SDS/PAGE gel, and visualized by Coomassie-staining. As a negative control for non-specific adsorption, enzyme alone was incubated with protein A Sepharose beads (lane 3).
(§2) After washing unbound antibody, purified enzyme ProMMP-9, Pro-MMP-2, or active MMP-2 fragment (catalytic and fibronectin domain), was added following 2 hour incubation under continuous stirring at room temperature. Bead-bound immune complex was collected by centrifugation and washed three times with PBS. Bound proteins were eluted with SDS sample buffer, fractionated by SDS-PAGE, and detected by Coomassie blue staining. As negative control for non specific adsorption enzyme was incubated with protein A Sepharose beads.

[2] = target: T2, Human Pro-MMP-9 (human, UniProt P14780 20-707); assay: as above
T2 construct: Zymogen with pro-domain; also called MMP-9 zymogen
T2 sequence (P14780 20-707): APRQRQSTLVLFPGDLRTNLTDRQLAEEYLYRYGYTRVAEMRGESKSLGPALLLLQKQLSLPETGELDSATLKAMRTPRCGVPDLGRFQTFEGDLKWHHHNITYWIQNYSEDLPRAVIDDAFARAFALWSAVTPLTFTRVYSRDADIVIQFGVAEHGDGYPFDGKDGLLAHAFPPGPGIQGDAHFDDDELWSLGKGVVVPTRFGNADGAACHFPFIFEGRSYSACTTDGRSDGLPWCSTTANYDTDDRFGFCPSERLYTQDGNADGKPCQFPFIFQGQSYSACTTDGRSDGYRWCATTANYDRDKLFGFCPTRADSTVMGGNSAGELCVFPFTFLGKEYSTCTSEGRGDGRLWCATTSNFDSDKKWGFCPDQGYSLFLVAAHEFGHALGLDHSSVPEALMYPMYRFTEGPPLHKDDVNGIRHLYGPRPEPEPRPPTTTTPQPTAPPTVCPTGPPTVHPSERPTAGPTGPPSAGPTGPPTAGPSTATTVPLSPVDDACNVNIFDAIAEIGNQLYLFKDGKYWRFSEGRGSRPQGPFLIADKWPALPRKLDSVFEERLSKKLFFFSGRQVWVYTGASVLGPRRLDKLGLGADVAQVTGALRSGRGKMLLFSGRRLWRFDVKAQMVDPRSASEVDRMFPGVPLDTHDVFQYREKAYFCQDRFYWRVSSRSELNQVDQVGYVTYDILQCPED
Experimental: as §1, §2

[3] = target: T3, MMP-9 catalytic fibronectin fragment (human or mouse (not told which)); assay: SPR (BIAcore 3000), biotin-labeled MMP-9 on SA chip, antibody in flow
T3 construct: domain: catalytic fibronectin fragment; Immobilized on a streptavidin (SA) sensor chip for SPR; also called Biotinylated human or mouse MMP-9 catalytic fibronectin fragment; Biotin-labeled MMP-9
Description: (§3) FIGS. 13A-B are graphs illustrating results of SPR analysis of SDS3/SDS4 binding to MMP-9. Biotinylated human or mouse MMP-9 catalytic fibronectin fragment was immobilized on streptavidin (SA) chip. Control-corrected sensorgrams corresponding to the interaction of SDS3(FIG. 13A) and SDS4 (FIG. 13B) with biosensor surface-immobilized MMP-9 are shown. Antibody concentrations are represented by different colors, with specific values indicated. The data were collected in duplicate, and representative SPR sensorgrams in the ligand concentration series are shown. The ka (1/Ms) and kd (1/s) values were determined by SPR analysis, and KD (M) was calculated from ka and kd (KD=kd/ka).RU,response units.
(§4) The affinity between SDS3/SDS4 and human and mouse MMP-9 catalytic fibronectin fragment was measured with a BIAcore 3000 instrument (BIACORE). Biotin-labeled MMP-9 was immobilized on a sensor chips SA by the biotin-streptavidin coupling method, according to the manufacturer's instructions. All measurements were carried out at 25° C. and with a flow rate of 20 μl/min for both the association and dissociation phases in TBS buffer (50 mM Tris, 100 mM NaCl, 5 mM CaCl₂, pH 7.5). The interaction was monitored as the change in the SPR response. The association and dissociation rate constants, kₐ and kd, were determined by analysis of the appropriate regions of the sensogram using the BIAevaluation 3.2 software package (Pharmacia). The apparent equilibrium dissociation constant KD was determined from the ratio of the two rate constants (kd/kₐ).

[4] = target: T4, native bovine serum albumin (bovine, UniProt P02769 25-607); assay: ELISA screen of hybridoma supernatants on plate-absorbed antigen
T4 construct: Unconjugated carrier protein used as the counter-screen in the hybridoma ELISA; also called native BSA; BSA
T4 sequence (P02769 25-607 limits assumed): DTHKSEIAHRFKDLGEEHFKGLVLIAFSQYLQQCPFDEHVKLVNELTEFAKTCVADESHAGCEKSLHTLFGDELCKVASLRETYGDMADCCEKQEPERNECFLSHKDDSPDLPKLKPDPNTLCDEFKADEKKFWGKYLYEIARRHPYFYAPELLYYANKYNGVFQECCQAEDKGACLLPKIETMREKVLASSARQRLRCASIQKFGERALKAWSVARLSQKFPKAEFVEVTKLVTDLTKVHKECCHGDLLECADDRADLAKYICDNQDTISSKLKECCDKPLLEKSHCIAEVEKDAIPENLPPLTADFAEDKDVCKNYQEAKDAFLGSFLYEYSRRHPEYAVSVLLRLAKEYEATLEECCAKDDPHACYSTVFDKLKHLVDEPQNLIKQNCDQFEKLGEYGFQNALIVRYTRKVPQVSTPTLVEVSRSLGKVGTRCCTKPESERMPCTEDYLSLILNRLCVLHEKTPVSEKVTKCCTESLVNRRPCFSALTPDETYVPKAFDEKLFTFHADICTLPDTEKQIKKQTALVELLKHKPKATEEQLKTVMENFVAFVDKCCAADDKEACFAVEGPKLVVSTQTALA
Experimental: Preparation of Anti-MMP Metallobodies Using Zn-Tripod-KLH as an Immunogen: Female BALB/c mice were immunized on day 1 with complete Freund adjuvant and 50 μg of Zinc-Tripod-KLH and boosted every two weeks with incomplete Freund adjuvant by emulsifying and intraperitoneal injection. Spleen cells from the immunized mice were fused with NSO murine myeloma cells and cultured in HAT (hypoxantine/aminopterin/thymidine) selection medium. The culture supernatants of the hybridoma were screened using an ELISA, employing pairs of wells in microtiter plates on which were absorbed MMP-9 catalytic domain and Zinc-Tripod-BSA as antigens (0.5 μg of MMP-9 or Zinc-Tripod-BSA conjugate per well). After incubation with 100 μl of the hybridoma supernatants, and with intervening washes with Tris-buffered saline, pH 7.5, containing 0.05% Tween 20 (TBS-Tween), the wells were incubated with a peroxidase-conjugated goat anti-mouse IgG, followed by a substrate solution containing 2′-azino-bis(3-ethylbenzthiazoline-6-sulfonic acid) diammonium salt. Hybridoma cells, corresponding to the supernatants that were positive on both MMP-9 and Zinc-Tripod—BSA and negative on native BSA, were then cloned by limited dilution. After repeated screenings, four clones showing the most distinctive recognition of both antigens were obtained and clone SDS3 was chosen for further characterization.

[5] = target: T5, active MMP-9 (as used in the enzymatic kinetic assay and the XAS studies); assay: cell-based or functional assay
[6] = target: T5, active MMP-9 (as used in the enzymatic …); assay: cell-based or functional assay; remark: listed apart in the source
[7] = target: MMP-2 (as used in the enzymatic kinetic assay); assay: cell-based or functional assay
MMP-2 (as used in the enzymatic kinetic assay), sequence (P33434 110-467): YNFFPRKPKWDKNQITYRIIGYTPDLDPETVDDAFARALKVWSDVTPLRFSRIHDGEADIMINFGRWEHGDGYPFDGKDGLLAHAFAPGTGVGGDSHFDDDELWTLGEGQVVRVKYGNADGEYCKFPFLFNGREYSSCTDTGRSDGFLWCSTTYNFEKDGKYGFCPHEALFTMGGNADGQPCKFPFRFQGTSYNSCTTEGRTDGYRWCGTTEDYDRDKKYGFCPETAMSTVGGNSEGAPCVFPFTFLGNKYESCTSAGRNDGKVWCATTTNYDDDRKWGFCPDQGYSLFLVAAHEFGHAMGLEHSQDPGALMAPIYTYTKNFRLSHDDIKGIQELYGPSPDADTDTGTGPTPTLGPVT

[8] = target: T3, MMP-9 catalytic fibronectin fragment; assay: SPR (BIAcore 3000), biotin-labeled MMP-9 on SA chip, antibody in flow; KD=kd/ka
Description: as §3
as §4, with “All measurements were carried out at 25° C. and with a flow rate of 20 μl/min for both the association and dissociation phases in TBS buffer (50 mM Tris, 100 mM NaCl, 5 mM CaCl₂, pH 7.5).” left out

[9] = target: T5, active MMP-9 (as used in the enzymatic …); assay: enzyme kinetics, fluorogenic peptide hydrolysis, fit to competitive inhibition
Experimental: (§5) Similarly the enzymatic activity of TACE was measured by monitoring the degradation of fluorogenic peptide QF-45 (Mca-[…]dinitrophenyl)-NH2) (SEQ ID NO: 2). A range of different mAb concentrations (0.4-30 μM) were pre-incubated with 2 nM of active enzyme in 50 mM Tris buffer (pH 7.5 37° C.), 200 mM NaCl, 5 mM CaCl₂, and 0.05% Brij 35 for 40 minutes at 37° C. The enzymatic reaction was initiated by addition of 10 μM of the fluorogenic peptide. Fluorescence (as a measure of substrate degradation) was immediately recorded continuously for 30-50 minutes. Initial reaction rates were measured and inhibition constants were evaluated by fitting to equation of competitive inhibition (vi/vo=Km+[S]/(Km(1+I/Ki)+[S]) [I. H. Segel, Enzyme Kinetics (Wiley-Interscience Publication, 1993)], where vi is initial velocity in the presence of mAb, vo is the initial velocity in the absence of mAb inhibitor, S is substrate concentration Km is the Michaelis-Menten constant and I is mAb concentration.
(§6) The effect of SDS3 and SDS4 on MMPs' enzymatic activity was examined using to standard peptide hydrolysis assay based on conversion of fluorogenic peptide substrate [C. G. Knight, F. Willenbrock, G. Murphy, FEBS Lett 296, 263 (Jan. 27, 1992)] as well as native gelatin substrate. Initial reaction velocities were measured in the presence of several concentrations of metallobodies incubated with various MMPs and tumor necrosis factor-alpha converting enzyme (TACE).

[10] = target: MMP-2 (as used in the enzymatic kinetic assay); assay: as above
Experimental: as §5, §6

[11] = target: T6, mouse MMP-9 catalytic domain (mouse, UniProt P41245 107-215; P41245 391-443, biotinylated (site not stated)); assay: ELISA, biotinylated mouse catalytic MMP-9 on streptavidin plate, soluble antibody
T6 construct: range 107-215;range 391-443; also called Biotinylated mouse catalytic MMP-9; not shown: N-terminal His tag from the pET3a construct
T6 sequence (looked up): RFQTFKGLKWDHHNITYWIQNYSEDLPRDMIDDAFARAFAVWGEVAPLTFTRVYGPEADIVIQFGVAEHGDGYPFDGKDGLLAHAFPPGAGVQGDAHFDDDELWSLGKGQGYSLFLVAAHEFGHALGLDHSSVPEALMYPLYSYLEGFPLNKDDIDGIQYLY
Experimental: ELISA Binding Assay: Biotinylated mouse catalytic MMP-9 was coupled to streptavidin coated microtiter plate (Nunc) according to manufacture protocol. After the plates were coated, they were incubated with the SDS3/4 mAb for 2 hours at room temperature. The plates were washed, and bound Ab was detected with peroxidase-labeled goat anti-mouse IgG (Jackson) according to standard procedures. EC₅₀, or concentration of half-maximal binding was calculated from a four-parametric sigmoidal-curve fitting analysis.

[12] = target: T7, human MT1-MMP catalytic domain (human, UniProt P50281 114-290); assay: cell-based or functional assay
[13] = target: T7, human MT1-MMP catalytic domain; assay: enzyme kinetics, fluorogenic peptide hydrolysis, fit to competitive inhibition
Experimental: as §5, §6

B1: SDS3 (antibody, V domains shown)
VH: VQLQESGGGLVKPGGSLKLSCAASGFAFSTYDMSWIRQTPEKRLEWVATISSGGSYTYYPDSVKGRFTISKDNARNTLYLQMSSLRSGDTALYYCTRFRYDGWYFDVWGQG
VL: DVLITQTPLSLPVSLGDQASISCRSSQSIVHSNGNTFLEWYLQKPGQSPKLLIYKVSNRFSGVPDRFSGSGSGTDFTLKISRVEAEDLGVYYCFQASHVPPTFGGG
notes: Mouse hybridoma monoclonal antibody raised against Zn-Tripod-KLH; also called SDS3 mAb; SDS3 metallobody
binding result [1]: no binding
binding result [2]: no binding
koff [3]: 0.00135 s⁻¹
kon [3]: 6640 M⁻¹ s⁻¹
binding result [4]: no binding
IC50 (read off the curve) [5]: ~3000 nM
IC50 of inhibition of enzymatic activity (fluorogenic peptide hydrolysis) [6]: 1000 nM
IC50 of inhibition of enzymatic activity (fluorogenic peptide hydrolysis) [7]: 1400 nM
Kd [8]: 200 nM
Ki [9]: 1000 nM
Ki [10]: 1000 nM
EC50 [11]: 200 nM

B2: SDS4 (antibody, V domains shown)
VH: EVQLQQSGPELVKPGASVKISCKASGYTFTGYYMHWVKQSPEKSLEWIGEINPSTGGTTYNQKFTGKATLTVDKSSSTAYMQLKSLTSDDSAVYYCASYYRYDWFAYWGQGTLVTVSA
VL: DVLMTQTPLSLPVSLGDQASISCRSSQSLVHSNGNTYLHWYLQKPGQSPKLLIYKVSNRFSGVPDRFSGSGSGTDFTLKISRVEAEDLGVYFCSQSTHVPFTFGSGTKLELKR
notes: Mouse hybridoma monoclonal antibody raised against Zn-Tripod-KLH; also called SDS4 mAb; SDS4 metallobody
koff [3]: 0.00166 s⁻¹
kon [3]: 439000 M⁻¹ s⁻¹
IC50 of inhibition of enzymatic activity (fluorogenic peptide hydrolysis) [12]: 1420 nM
IC50 of inhibition of enzymatic activity (fluorogenic peptide hydrolysis) [6]: 70 nM
IC50 of inhibition of enzymatic activity (fluorogenic peptide hydrolysis) [7]: 56 nM
Kd [8]: 3.78 nM
Ki [13]: 1400 nM
Ki [9]: 54 nM
Ki [10]: 54 nM
EC50 [11]: 15 nM
